Measured values from publication PMC3648612 (Nature structural & molecular biology, 2013).

Assays:
[1] = molecular target: T1, Med12 (Srb8), S. cerevisiae (S. cerevisiae, UniProt P25648 1-1427); experiment: cryo-EM structure
T1 sequence: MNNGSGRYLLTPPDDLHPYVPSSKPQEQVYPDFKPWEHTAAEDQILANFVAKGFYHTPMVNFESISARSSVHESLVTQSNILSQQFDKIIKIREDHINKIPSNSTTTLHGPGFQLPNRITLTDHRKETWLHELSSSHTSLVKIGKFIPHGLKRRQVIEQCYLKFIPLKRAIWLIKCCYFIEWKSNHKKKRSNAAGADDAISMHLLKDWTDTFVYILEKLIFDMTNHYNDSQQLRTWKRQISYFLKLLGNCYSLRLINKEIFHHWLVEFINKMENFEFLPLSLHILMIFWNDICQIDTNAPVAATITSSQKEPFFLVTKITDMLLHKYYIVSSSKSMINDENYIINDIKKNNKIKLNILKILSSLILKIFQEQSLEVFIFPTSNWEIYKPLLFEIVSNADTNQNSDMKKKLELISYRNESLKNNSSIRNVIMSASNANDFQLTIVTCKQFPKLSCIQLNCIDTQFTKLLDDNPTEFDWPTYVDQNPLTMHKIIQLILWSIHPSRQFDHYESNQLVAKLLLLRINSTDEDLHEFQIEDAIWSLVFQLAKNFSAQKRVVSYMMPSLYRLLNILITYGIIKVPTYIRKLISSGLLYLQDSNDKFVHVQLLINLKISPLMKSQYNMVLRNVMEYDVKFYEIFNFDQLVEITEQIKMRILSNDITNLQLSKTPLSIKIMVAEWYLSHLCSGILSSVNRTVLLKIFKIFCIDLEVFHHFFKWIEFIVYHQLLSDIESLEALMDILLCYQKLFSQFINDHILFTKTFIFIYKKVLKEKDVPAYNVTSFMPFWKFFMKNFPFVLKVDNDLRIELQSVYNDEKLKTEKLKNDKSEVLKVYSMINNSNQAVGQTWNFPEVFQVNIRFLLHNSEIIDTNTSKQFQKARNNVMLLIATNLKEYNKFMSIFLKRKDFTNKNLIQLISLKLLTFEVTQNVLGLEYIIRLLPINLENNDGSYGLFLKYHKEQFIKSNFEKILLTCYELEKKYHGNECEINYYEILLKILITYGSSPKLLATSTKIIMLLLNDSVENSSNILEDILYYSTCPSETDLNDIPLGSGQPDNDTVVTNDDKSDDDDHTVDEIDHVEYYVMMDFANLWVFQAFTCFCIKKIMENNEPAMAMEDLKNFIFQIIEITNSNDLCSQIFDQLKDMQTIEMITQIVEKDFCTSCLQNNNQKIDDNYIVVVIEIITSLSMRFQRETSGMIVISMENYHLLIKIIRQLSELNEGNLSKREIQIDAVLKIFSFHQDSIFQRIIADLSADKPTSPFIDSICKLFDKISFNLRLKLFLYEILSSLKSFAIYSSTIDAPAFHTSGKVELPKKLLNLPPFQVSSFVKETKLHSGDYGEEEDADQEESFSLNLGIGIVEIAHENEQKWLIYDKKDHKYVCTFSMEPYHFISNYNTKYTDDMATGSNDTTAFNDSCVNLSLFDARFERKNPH

[2] = molecular target: T2, Cdk8 (Srb10) with a C-terminal TAP tag, S. cerevisiae (S. cerevisiae, UniProt P39073 1-555); experiment: tandem affinity purification
T2 sequence: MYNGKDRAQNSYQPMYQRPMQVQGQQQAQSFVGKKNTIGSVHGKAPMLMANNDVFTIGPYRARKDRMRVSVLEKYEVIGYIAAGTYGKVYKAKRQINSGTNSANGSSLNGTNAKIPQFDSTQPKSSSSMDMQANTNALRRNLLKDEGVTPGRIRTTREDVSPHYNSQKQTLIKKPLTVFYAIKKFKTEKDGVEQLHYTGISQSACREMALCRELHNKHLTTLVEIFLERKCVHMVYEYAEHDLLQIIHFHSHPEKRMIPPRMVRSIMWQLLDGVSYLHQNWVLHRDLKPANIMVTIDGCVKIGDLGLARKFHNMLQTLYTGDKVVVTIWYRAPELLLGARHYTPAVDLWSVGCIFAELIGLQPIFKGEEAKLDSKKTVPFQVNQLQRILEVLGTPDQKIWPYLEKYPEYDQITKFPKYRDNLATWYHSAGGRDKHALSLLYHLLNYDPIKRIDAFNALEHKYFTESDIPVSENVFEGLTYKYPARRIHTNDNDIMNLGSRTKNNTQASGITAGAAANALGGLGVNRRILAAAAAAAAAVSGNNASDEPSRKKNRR

| Binder | binding result [1] | binding result [2] |
| --- | --- | --- |
| CycC (Srb11), S. cerevisiae (natural protein) MSGSFWTSTQRHHWQYTKASLAKERQKLWLLECQLFPQGLNIVMDSKQNGIEQSITKNIPITHRDLHYDKDYNLRIYCYFLIMKLGRRLNIRQYALATAHIYLSRFLIKASVREINLYMLVTTCVYLACKVEECPQYIRTLVSEARTLWPEFIPPDPTKVTEFEFYLLEELESYLIVHHPYQSLKQIVQVLKQPPFQITLSSDDLQNCWSLINDSYINDVHLLYPPHIIAVACLFITISIHGKPTKGSSLASAASEAIRDPKNSSSPVQIAFNRFMAESLVDLEEVMDTIQEQITLYDHWDKYHEQWIKFLLHTLYLRPASAI | binds | binds |
| Med13 (Srb9), S. cerevisiae (natural protein) MSSDASTYRLEDVLSSFYRVEKIKKINYHQYISKAQNDQWSIQMEFMLRKQDPKTLVALLSRDLWCFSINDDPVPTPPAIEHKPVSPDKIGTFTADYSKPNLPPHYALFLKALRRKIYINLALGSHNKLIQFGNACISLSGVPNYLVQLEPHLFVNGDLTVSLCAKNMGLVPMKEENLEESFLSKHALYLAPSGIRMHLAPASKQGYLITPPKHTELLLTTLSVSHGINLQNKKNLKWVAVVPDLGHLNGHTPTIASYLTPLLEAKKLVWPLHLIFAQPVADIENSTSGDPSEFHCLQDALDAIDDFIQLKQTAAYRTPGSSGVLSSNIAGTNPLSSDGAYTEQFQHYKNNSISSQPASYHSVQETNKISPKDFSPNFTGIDKLMLSPSDQFAPAFLNTPNNNINENELFNDRKQTTVSNDLENSPLKTELEANGRSLEKVNNSVSKTGSVDTLHNKEGTLEQREQNENLPSDKSDSMVDKELFGEDEDEDLFGDSNKSNSTNESNKSISDEITEDMFEMSDEEENNNNKSINKNNKEMHTDLGKDIPFFPSSEKPNIRTMSGTTKRLNGKRKYLDIPIDEMTLPTSPLYMDPGAPLPVETPRDRRKSVFAPLNFNPIIENNVDNKYKSGGKFSFSPLQKEEALNFDISMADLSSSEEEEDEEENGSSDEDLKSLNVRDDMKPSDNISTNTNIHEPQYINYSSIPSLQDSIIKQENFNSVNDANITSNKEGFNSIWKIPQNDIPQTESPLKTVDSSIQPIESNIKMTLEDNNVTSNPSEFTPNMVNSEISNLPKDKSGIPEFTPADPNLSFESSSSLPFLLRHMPLASIPDIFITPTPVVTISEKEQDILDLIAEQVVTDYNILGNLGIPKIAYRGVKDCQEGLITTTMLQLFSTFDRLNGNDTISKFYNMKQPYVFVKKHHELIKVKHDSQPFIKFLNFRPPNGIKNFKSLLLSSSFKEDCLSFAPTLSQTYINQELGFCELLKLTNEDPPGLMYLKAFDKNKLLLLAAQIVSYCSNNKNSIKNVPPILIILPLDNATLTELVDKANIFQVIKNEVCAKMPNIELYLKVIPMDFIRNVLVTVDQYVNVAISIYNMLPPKSVKFTHIAHTLPEKVNFRTMQQQQMQQQQQQQQQQQNNSTGSSSIIYYDSYIHLAYSRSVDKEWVFAALSDSYGQGSMTKTWYVGNSRGKFDDACNQIWNIALNLASKKFGKICLILTRLNGILPDDELMNWRRLSGRNIHLAVVCVDDNSKISFIDEDKLYPSFKPIYKDTRFGGRMDMTRLYDYEIRDIDQDIHGIVFQHPFPLAHSQHRCAIRSGALIKFKKCDGDTVWDKFAVNLLNCPHSDSTQLLETILEEFRNLAALNVWYGLSDGEDGHIPWHILAVKKMMNTLVHTRVKIANTSAATVHTATSSSIILSDK | binds | – |
